These results are taken from patent publication US20110286916A1 (published 2011).

Test [1] addresses T1, human full-length Notch1 with C-terminal FLAG tag, stably expressed on 293 FlpIn (TREx) cells (human, UniProt P46531 19-2555).
T1 construct: tetracycline/doxycycline-induced expression from pcDNA5/FRT/TO-HN1+FLAG; also called hN1; 293_N1
In words: FACS, phage scFv.

The target in test [2] is T2, human full-length Notch3 with C-terminal FLAG tag, stably expressed on 293 FlpIn (TREx) cells (human, UniProt Q9UM47 40-2321).
T2 construct: whole, on cells; made by the same strategy as the Notch1 line; also called 293-N3; hN3
Briefly: FACS, phage scFv.

B1: hN1S3-003 (scFv, V domains shown)
VH: EVQLVQSGPEVKKPGTSVKVSCKASGFTFTNSAVQWVRQARGQRLEWIGWIVVGSGNTNYAQKFQERVTITRDMSTSTAYMELSSLKSEDTAVYYCVADTVYWGQGTLVTVSS
VL: not shown
notes: phage scFv
For B1, the binding result in test [1] and in test [2] was “binds” throughout.

B2: hN1S3-040 (scFv, V domains shown)
VH: EVQLVQSGPEVKKPGTSVKVSCKASGFTFTSSAVQWVRQARGQRLEWIGWIVVGSGNTNYAQKFQERVTITRDMSTSTAYMELSSLRSEDTAVYYCVADTVYWGRGTTVTVSS
VL: QSVLTQPPSASGTPGQGVTISCSGSSSNIGRNSVNWYQQLPGTAPKLLIYGDNQRPSGVPDRFSGSKPGTSASLAISGLQSDDEAHYYCAAWDDSLNGWVFGGGTKVTVL
notes: phage scFv
Regarding B2, the binding result in test [1] and in test [2] was “binds” each time.

B3: N1wc11 (scFv, V domains shown)
VH: EVQLVQSGPEVKKPGTSVKVSCKASGFTFTNSAVQWVRQARGQRLEWIGWIVVGSGNINYAQKFQERVTITRDMSTSTAYMELSSLKSEDTAVYYCVADTVYWGRGTMVTVSS
VL: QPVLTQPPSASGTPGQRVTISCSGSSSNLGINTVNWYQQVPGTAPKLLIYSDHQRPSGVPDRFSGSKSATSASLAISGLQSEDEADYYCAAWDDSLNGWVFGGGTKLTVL
notes: phage scFv
With B3, the binding result in test [1] and in test [2] was “binds” in each case.

B4: N1wc516 (scFv, V domains shown)
VH: EVQLVESGAEVKKPGASVKVSCKASGYNFTGYYMHWVRQAPGQGLEWMGWINPNSGGTNYAQKFQGRVIMTRDTSISTAYMELSRLTSDDTAVYYCATDSFDYWGRGTLVTVSS
VL: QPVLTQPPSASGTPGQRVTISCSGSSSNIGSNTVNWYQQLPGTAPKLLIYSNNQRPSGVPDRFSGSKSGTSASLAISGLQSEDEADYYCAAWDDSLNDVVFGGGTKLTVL
notes: phage scFv
Turning to B4, the binding result in test [1] and in test [2] was “binds” in each case.

B5: hN1S3-053 (scFv, V domains shown)
VH: EVQLVQSGAEVKKPGASVKVSCKASGYNFTGYYMHWVRQAPGQGLEWMGWINPNSGGTNYAQKFQGRVTMTRDTSISTAYMELSRLRSDDTAVYYCATDSFDYWGRGTTVTVSS
VL: QAVLTQPSSVSGAPGQRVTISCTGSRSNIGAGYDVHWYQQLPGTAPKLLIYGNSNRPSGVPDRFSGSKSGTSASLAITGLQAEDEADYYCQSYDSSLSGSVFGGGTKLTVL
notes: phage scFv
Regarding B5, the binding result in test [1] and in test [2] was “binds” throughout.

B6: hN1S3-023 (scFv, V domains shown)
VH: EVQLVQSGAEVKKPGASVKVSCKASGYNFTGYYMHWVRQAPGQGLEWMGWINPNSGGTNYAQKFQGRVTMTRDTSISTAYMELSRLRSDDTAVYYCATDSFDYWGQGTMVTVSS
VL: not shown
notes: phage scFv
With B6, the binding result in test [1] and in test [2] was “binds” in each case.

B7: hN1S3-032 (scFv, V domains shown)
VH: EVQLVQSGAEVKKPGASVKVSCKASGYNFTGYYMHWVRQAPGQGLEWMGWINPNSGGTNYAQKFQGRVTMTRDTSISTAYMELSRLRSDDTAVYYCATDSFDYWGKGTLVTVSS
VL: QAVLTQPSSVSGAPGQRVTISCTGSSSNIGAGYDVHWYRQLPGTAPKLLLYGNDNRPSGVPDRFSGSKSGASASLAITGLRADDEADYYCQSYDSSLSGSVFGGGTKVTVL
notes: phage scFv
As to B7, the binding result in test [1] and in test [2] was “binds” throughout.

B8: hN1S3-182 (scFv, V domains shown)
VH: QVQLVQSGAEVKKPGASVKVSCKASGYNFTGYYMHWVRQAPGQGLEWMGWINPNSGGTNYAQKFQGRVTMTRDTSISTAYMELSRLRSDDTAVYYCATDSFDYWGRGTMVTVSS
VL: QAVLTQPSSVSGAPGQRVTISCTGSSSNIGSPYDVNWYQQFPGTAPKLLIYGNINRPSGVPDRFSGSKSGTSASLAITGLQAEDEADYYCQTYDSTLNGAVFGGGTKLTVL
notes: phage scFv
B8: the binding result in test [1] and in test [2] was “binds” throughout.

B9: N1wc633 (scFv, V domains shown)
VH: QVQLQQSGAEVKKPGASVKVSCKASGYNFTGYYMHWVRQAPGQGLEWMGWINPNSGGTNYAQKFQGRVTMTRDTSISTAYMELSRLRSDDTAVYYCATDSFDYWGRGTLVTVSS
VL: QAVLTQPSSASGTPGQRVTISCSGSSSNIGSYTVNWYQQVPGTAPKLLIYSNNQRPSGVPERFSGSKSGTSASLAISGLQSEDEADYYCAAWDDSLSDVLFGGGTKVTVL
notes: phage scFv
Regarding B9, the binding result in test [1] and in test [2] was “binds” throughout.

B10: hN1S3-036 (scFv, V domains shown)
VH: EVQLVQSGAEVKKPGASVKVSCKASGYNFTGYYMHWVRQAPGQGLEWMGWINPNSGGTNYAQKFQGRVTMTRDTSISTAYMELSRLRSDDTAVYYCATDSFDYWGRGTMVTVSS
VL: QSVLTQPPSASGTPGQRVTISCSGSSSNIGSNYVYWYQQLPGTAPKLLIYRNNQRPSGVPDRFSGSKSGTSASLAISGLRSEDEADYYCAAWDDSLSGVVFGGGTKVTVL
notes: phage scFv
With B10, the binding result in test [1] and in test [2] was “binds” in each case.

B11: N1wc540 (scFv, V domains shown)
VH: EVQLVQSGAEVKKPGASVKVSCKASGYNFTGYYMHWVRQAPGQGLEWMGWINPNSGGTNYAQKFQGRVTMTRDTSISTAYMELSRLRSDDTAVYYCATDSFDYWGQGTMVTVSS
VL: QAVLTQPSSASGTPGQRVTISCSGSSSNIGSYTVNWYQQVPGTAPKLLIYSNNQRPSGVPERFSGSKSGTSASLAISGLQSEDEADYYCAAWDDSLSDVLFGGGTKLTVL
notes: phage scFv
With B11, the binding result in test [1] and in test [2] was “binds” each time.

B12: hN1S3-055 (scFv, V domains shown)
VH: QVQLVQSGAEVKKPGASVKVSCKASGYNFTGYYMHWVRQAPGQGPEWMGWINPNSGGTNYAQKFQGRVTMTRDTSISTAYMELSRLRSDDTAVYYCATDSFDYWGRGTMVTVSS
VL: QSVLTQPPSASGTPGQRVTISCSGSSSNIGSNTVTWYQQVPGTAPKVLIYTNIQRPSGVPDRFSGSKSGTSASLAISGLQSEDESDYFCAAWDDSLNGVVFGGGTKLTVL
notes: phage scFv
As for B12, the binding result in test [1] and in test [2] was “binds” throughout.

B13: hN1S3-095 (scFv, V domains shown)
VH: EVQLVQSGAEVKKPGASVKVSCKASGYNFTGYYMHWVRQAPGRGLEWMGWINPNSGGTNYAQKFQGRVTMTRDTSISTAYMELSRLRSDDTAVYYCATDSFDYWGQGTLVTVSS
VL: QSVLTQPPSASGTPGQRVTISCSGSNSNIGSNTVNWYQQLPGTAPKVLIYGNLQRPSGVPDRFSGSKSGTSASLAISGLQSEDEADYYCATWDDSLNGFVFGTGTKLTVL
notes: phage scFv
Consider B13, for which the binding result in test [1] and in test [2] was “binds” each time.

B14: hN1S3-181 (scFv, V domains shown)
VH: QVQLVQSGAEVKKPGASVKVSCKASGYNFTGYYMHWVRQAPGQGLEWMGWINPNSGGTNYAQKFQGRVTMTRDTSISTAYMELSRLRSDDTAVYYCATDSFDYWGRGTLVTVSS
VL: SYVLTQPPSASGTPGQRVTISCSGSSPNIGSNTVNWYQQLPGTAPKLLIYTNNQRPSGVPDRFSGSKSATSASLAISGLQFDDEADYFCAAWDDSLLGVVFGGGTKVTVL
notes: phage scFv
Consider B14, for which the binding result in test [1] and in test [2] was “binds” each time.

B15: hN1S3-124 (scFv, V domains shown)
VH: EVQLVQSGAEVKKPGASVKVSCKASGYNFTGYYMHWVRQAPGQGLEWMGWINPNSGGTNYAQKFQGRVTMTRDTSISTAYMELSRLRSDDTAVYYCATDSFDYWGRGTTVTVSS
VL: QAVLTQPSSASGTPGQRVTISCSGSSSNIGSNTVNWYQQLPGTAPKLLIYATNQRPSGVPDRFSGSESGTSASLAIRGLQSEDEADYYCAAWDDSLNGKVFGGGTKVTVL
notes: phage scFv
For the molecule B15, the binding result in test [1] and in test [2] was “binds” throughout.

B16: hN1S3-092 (scFv, V domains shown)
VH: EVQLVQSGAEVKKPGASVKVSCKASGYNFTGYYMHWVRQAPGQGLEWMGWINPNSGGTNYAQKFQGRVTMTRDTSISTAYMELSRLRSDDTAVYYCATDSFDYWGQGTLVTVSS
VL: QSVLTQPPSASGTPGQRVTISCSGSSSNIGANYVYWYQQLPGTAPKLLIYKNDQRPSGVPDRFSGSKSGTSASLAISGLRSEDEADYYCAAWDDSLSGLVFGGGTKVTVL
notes: phage scFv
On to B16, for which the binding result in test [1] and in test [2] was “binds” in each case.

B17: hN1S3-096 (scFv, V domains shown)
VH: EVQLVQSGAEVKKPGASVKVSCKASGYNFTGYYMHWVRQAPGQGLEWMGWINPNSGGTNYAQKFQGRVTMTRDTSISTAYMELSRLRSDDTAVYYCATDSFDYWGRGTTVTVSS
VL: QPVLTQPPSASGTPGQRVTISCSGSSSNIASNSVYWYQQLPGTAPKLLIYRNNQRPSGVPDRFSGSQSGASASLAISGLRSEDEADYYCAAWDDNLYGVVFGGGTKLTVL
notes: phage scFv
Turning to B17, the binding result in test [1] and in test [2] was “binds” throughout.

B18: N1wc572 (scFv, V domains shown)
VH: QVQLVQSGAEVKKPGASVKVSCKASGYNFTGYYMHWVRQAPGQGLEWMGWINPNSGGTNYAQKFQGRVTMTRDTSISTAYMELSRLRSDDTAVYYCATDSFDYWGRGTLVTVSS
VL: LPVLTQPPSASGTPGQRVTISCSGSSSNIGSNPVNWYQQLPGSAPKLLVYSDDQRPSGVPDRFSGSKSGASASLAISGLQSEDESDYYCAAWDDSLNAVVFGGGTKVTVL
notes: phage scFv
As for B18, the binding result in test [1] and in test [2] was “binds” throughout.

B19: hN1S3-001 (scFv, V domains shown)
VH: EVQLVQSGAEVKKPGASVKVSCKASGYNFTGYYMHWVRQAPGQGLEWMGWINPNSGGTNYAQKFQGRVTMTRDTSISTAYMELSRLRSDDTAVYYCATDSFDYWGQGTMVTVSS
VL: not shown
notes: phage scFv
On to B19, for which the binding result in test [1] and in test [2] was “binds” in each case.

B20: N1wc624 (scFv, V domains shown)
VH: QVQLQQSGAEVKKPGASVKVSCKASGYNFTGYYMHWVRQAPGQGLEWMGWINPNSGGTNYAQKFQGRVTMTRDTSISTAYMELSRLGSDDTAVYYCATDSFDYWGRGTLVTVSS
VL: not shown
notes: phage scFv
For B20, the binding result in test [1] and in test [2] was “binds” in each case.

B21: hN1S3-038 (scFv, V domains shown)
VH: EVQLVQSGAEVKKPGASVKVSCKASGYNFTGYYMHWVRQAPGQGLEWMGWINPNSGGTNYAQKFQGRVIMTRDTSISTAYMELSRLTSDDTAVYYCATDSFDYWGRGTTVTVSR
VL: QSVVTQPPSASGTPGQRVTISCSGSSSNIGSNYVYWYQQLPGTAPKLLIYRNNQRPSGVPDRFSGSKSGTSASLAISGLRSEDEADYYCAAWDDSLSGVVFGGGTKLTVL
notes: phage scFv
Consider B21, for which the binding result in test [1] and in test [2] was “binds” each time.

B22: hN1S3-091 (scFv, V domains shown)
VH: EVQLVQSGAEVKKPGASVKVSCKASGYNFTGYYMHWVRQAPGQGLEWMGWINPNSGGTNYAQKFQGRVTMTRDTSISTAYMELSRLRSDDTAVYYCATDSFDYWGQGTMVTVSS
VL: QSVLTQPPSATGTPGQTVSISCSGGNSNIGSNYVSWYQQLPGTAPKLLIYSNNQRPSGVPDRFSGSKSGTSASLAISGLQSEDEADYYCAAWDDSLNGHIFGTGTKLTVL
notes: phage scFv
On to B22, for which the binding result in test [1] and in test [2] was “binds” in each case.

B23: hN1S3-007 (scFv, V domains shown)
VH: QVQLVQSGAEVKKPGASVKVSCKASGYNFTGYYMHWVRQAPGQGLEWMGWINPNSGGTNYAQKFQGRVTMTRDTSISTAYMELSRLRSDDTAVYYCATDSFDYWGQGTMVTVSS
VL: QAVLTQPSSVSGTPGQRVTMSCSGGRSNIGSNAVNWYQQFPGTAPKLLMYNTNQRPSGVPGRFSGSKSGASASLAISGLQSDDEADYYCSSWDDSLNGLEFGGGTKLTVL
notes: phage scFv
In the case of B23, the binding result in test [1] and in test [2] was “binds” throughout.

B24: N1wc266 (scFv, V domains shown)
VH: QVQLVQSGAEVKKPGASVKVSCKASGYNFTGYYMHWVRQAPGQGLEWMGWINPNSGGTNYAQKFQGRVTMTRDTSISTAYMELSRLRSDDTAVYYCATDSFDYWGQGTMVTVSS
VL: QAVLTQPSSVSGTPGQRVTMSCSGGRSNIGSNAVNWYQQFPGTAPKLLMYNTNQRPSGVPGRFSGSKSGASASLAISGLQSDDEADYYCSSWDDSLNGLEFGGGTKLEIK
notes: phage scFv
With B24, the binding result in test [1] and in test [2] was “binds” in each case.
